The target of the experiment is ERK5ΔC385–399 (human) (UniProt Q13164). Briefly: fluorescence polarisation. For orientation: Polarisation of emitted light reports the rotation of a fluorescent probe.

MKK5 PB1-D construct (16–130), unlabeled, sequence (Q13163 16-130): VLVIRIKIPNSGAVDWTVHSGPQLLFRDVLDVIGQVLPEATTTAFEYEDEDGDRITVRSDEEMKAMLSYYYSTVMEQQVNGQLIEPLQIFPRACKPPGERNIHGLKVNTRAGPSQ

In turn, “MKK5 PB1-D construct (16–130), unlabeled (from UniProt Q13163 16-130) (domain or fragment)” registered a fold reduction of binding affinity against the wild-type pair of 20 fold.

Values taken from article PMC3605678.
